Test results taken from paper PMC4957052 (The Journal of Biological Chemistry, 2016).
Positions count from the first letter of the chain named. Numbers in names are those of the source.

B1: αT-catenin V94D ΔABD (aa 1-659) (domain or fragment, M. musculus, UniProt Q65CL1 1-659, looked up)
chain: MSAETPITLNMDTQDLQIQTFTVEKLLEPLIIQVTTLVNCPQNPSNRKKGRSKRARVLLASVEEATWNLLDKGEMIAKEATVLKEELAAALQEDRKESKALKVSAERFTDDPCYLPKREAVVQAARALLAAVTRLLVLADMIDVMCLLQHVSSFQRTFESLKNVSNKSDLQRTYQKLGKELESLDYLAFKRQQDLKSPSQRDEIAGARATLKENSPLLHSICSACLEHSDVASLKASKDTVCEEIQNALDVISNASQGIQNAPAPPEPQAATLGSAFDELENLIVLNPLTVTEEDVRPSLEKRLEAIISGAALLADSSCTRDLHRERIIAECNAIRQALQDLLTEYMSNTGKTERSNTLNTAIVNMSKKTRDLRRQLRKAIIDHISDSFLDTTVPLLVLIEAAKNGRVKEIKDYAAIFHEHTGRLVEVANLACSMSTNEDGIKIVRIAANHLETLCPQIINAALALASRPKSQVVKNTMEMYKRTWEHYIHVLTEAVDDITSIDDFLAVSESHILEDVNKCIIALRDQDADNLDRAAGAIRGRAARVAHIVAGEMDSYEPGAYTEGVMRNVNFLTSTVIPEFVTQVNVALDALSKNSLTALDDNQFVDISKKIYDTIHDIRCSVMMIRTPEELEDVSDLEDDHEVRSHTSIQTEGKTDR
notes: αT-catenin, Mus musculus, N-terminal head region aa 1-659 (ABD aa 660-895 deleted) with V94D; source: E. coli BL21(DE3), purified (glutathione-agarose, TEV cleavage, Mono Q, S200 gel filtration)
B2: M. musculus αT-catenin (wild type, full length) (natural protein, UniProt Q65CL1 1-895, looked up)
chain: MSAETPITLNMDTQDLQIQTFTVEKLLEPLIIQVTTLVNCPQNPSNRKKGRSKRARVLLASVEEATWNLLDKGEMIAKEATVLKEELAAALQEVRKESKALKVSAERFTDDPCYLPKREAVVQAARALLAAVTRLLVLADMIDVMCLLQHVSSFQRTFESLKNVSNKSDLQRTYQKLGKELESLDYLAFKRQQDLKSPSQRDEIAGARATLKENSPLLHSICSACLEHSDVASLKASKDTVCEEIQNALDVISNASQGIQNAPAPPEPQAATLGSAFDELENLIVLNPLTVTEEDVRPSLEKRLEAIISGAALLADSSCTRDLHRERIIAECNAIRQALQDLLTEYMSNTGKTERSNTLNTAIVNMSKKTRDLRRQLRKAIIDHISDSFLDTTVPLLVLIEAAKNGRVKEIKDYAAIFHEHTGRLVEVANLACSMSTNEDGIKIVRIAANHLETLCPQIINAALALASRPKSQVVKNTMEMYKRTWEHYIHVLTEAVDDITSIDDFLAVSESHILEDVNKCIIALRDQDADNLDRAAGAIRGRAARVAHIVAGEMDSYEPGAYTEGVMRNVNFLTSTVIPEFVTQVNVALDALSKNSLTALDDNQFVDISKKIYDTIHDIRCSVMMIRTPEELEDVSDLEDDHEVRSHTSIQTEGKTDRAKMTQLPEAEKEKIAEQVADFKKVKSKLDAEIEIWDDTSNDIIVLAKKMCMIMMEMTDFTRGKGPLKHTTDVIYAAKMISESGSRMDVLARQIANQCPDPPCKQDLLAYLEQIKFYSHQLKICSQVKAEIQNLGGELIVSALDSVTSLIQAAKNLMNAVVQTVKMSYIASTKIIRIQSSAGPRHPVVMWRMKAPAKKPLIKREKPEETWAAVRRGSAKKKIHPVQVMSEFRGRQVY
notes: Cloned into pGEX-TEV; cleaved from GST with tobacco etch virus protease; also called αT (testes)-catenin; WT αT-catenin; source: E. coli BL21(DE3), purified (glutathione-agarose, TEV cleavage, Mono Q, S200 gel filtration)
B3: M. musculus αT-catenin V94D (full length) (natural protein, UniProt Q65CL1 1-895, looked up)
chain: B2 chain with V94D
notes: αT-catenin, Mus musculus, full length, with the ARVC-linked V94D change made by site-directed mutagenesis; here it was put into the mouse protein; also called V94D mutant; V94D homodimer; source: E. coli BL21(DE3), purified (glutathione-agarose, TEV cleavage, Mono Q, S200 gel filtration)
B4: M. musculus αE-catenin, P26231 1-906 (natural protein)
chain: MTAVHAGNINFKWDPKSLEIRTLAVERLLEPLVTQVTTLVNTNSKGPSNKKRGRSKKAHVLAASVEQATENFLEKGDKIAKESQFLKEELVVAVEDVRKQGDLMKSAAGEFADDPCSSVKRGNMVRAARALLSAVTRLLILADMADVYKLLVQLKVVEDGILKLRNAGNEQDLGIQYKALKPEVDKLNIMAAKRQQELKDVGNRDQMAAARGILQKNVPILYTASQACLQHPDVAAYKANRDLIYKQLQQAVTGISNAAQATASDDAAQHQGGSGGELAYALNNFDKQIIVDPLSFSEERFRPSLEERLESIISGAALMADSSCTRDDRRERIVAECNAVRQALQDLLSEYMGNAGRKERSDALNSAIDKMTKKTRDLRRQLRKAVMDHVSDSFLETNVPLLVLIEAAKNGNEKEVKEYAQVFREHANKLIEVANLACSISNNEEGVKLVRMSASQLEALCPQVINAALALAAKPQSKLAQENMDLFKEQWEKQVRVLTDAVDDITSIDDFLAVSENHILEDVNKCVIALQEKDVDGLDRTAGAIRGRAARVIHVVTSEMDNYEPGVYTEKVLEATKLLSNTVMPRFTEQVEAAVEALSSDPAQPMDENEFIDASRLVYDGIRDIRKAVLMIRTPEELDDSDFETEDFDVRSRTSVQTEDDQLIAGQSARAIMAQLPQEQKAKIAEQVASFQEEKSKLDAEVSKWDDSGNDIIVLAKQMCMIMMEMTDFTRGKGPLKNTSDVISAAKKIAEAGSRMDKLGRTIADHCPDSACKQDLLAYLQRIALYCHQLNICSKVKAEVQNLGGELVVSGVDSAMSLIQAAKNLMNAVVQTVKASYVASTKYQKSQGMASLNLPAVSWKMKAPEKKPLVKREKQDETQTKIKRASQKKHVNPVQALSEFKAMDSI

What was measured:
[1] = molecular target: the molecule itself; assay: SEC + other: sucrose density gradient centrifugation; analytical Superdex 200 at 4 °C in 20 mM Tris pH 8.0, 150 mM NaCl, 1 mM DTT, protein injected at 25-30 μM (25-50 μM in the results); 5-20% sucrose gradients, 200,000 x g 4 h 4 °C, protein loaded at ≥20 μM; molecular mass from Stokes radius and sedimentation coefficient
[2] = molecular target: T1, mouse β-catenin (GST cleaved) (mouse, UniProt Q02248 1-781); assay: not stated; purified mouse β-catenin mixed with αT-catenin; data not shown; details: both partners purified
T1 construct: β-catenin, mouse; Probably the construct of m7 (full length) after TEV cleavage; source: E. coli BL21(DE3), purified (glutathione-agarose, TEV cleavage, Mono Q, S200 gel filtration)
T1 sequence (looked up): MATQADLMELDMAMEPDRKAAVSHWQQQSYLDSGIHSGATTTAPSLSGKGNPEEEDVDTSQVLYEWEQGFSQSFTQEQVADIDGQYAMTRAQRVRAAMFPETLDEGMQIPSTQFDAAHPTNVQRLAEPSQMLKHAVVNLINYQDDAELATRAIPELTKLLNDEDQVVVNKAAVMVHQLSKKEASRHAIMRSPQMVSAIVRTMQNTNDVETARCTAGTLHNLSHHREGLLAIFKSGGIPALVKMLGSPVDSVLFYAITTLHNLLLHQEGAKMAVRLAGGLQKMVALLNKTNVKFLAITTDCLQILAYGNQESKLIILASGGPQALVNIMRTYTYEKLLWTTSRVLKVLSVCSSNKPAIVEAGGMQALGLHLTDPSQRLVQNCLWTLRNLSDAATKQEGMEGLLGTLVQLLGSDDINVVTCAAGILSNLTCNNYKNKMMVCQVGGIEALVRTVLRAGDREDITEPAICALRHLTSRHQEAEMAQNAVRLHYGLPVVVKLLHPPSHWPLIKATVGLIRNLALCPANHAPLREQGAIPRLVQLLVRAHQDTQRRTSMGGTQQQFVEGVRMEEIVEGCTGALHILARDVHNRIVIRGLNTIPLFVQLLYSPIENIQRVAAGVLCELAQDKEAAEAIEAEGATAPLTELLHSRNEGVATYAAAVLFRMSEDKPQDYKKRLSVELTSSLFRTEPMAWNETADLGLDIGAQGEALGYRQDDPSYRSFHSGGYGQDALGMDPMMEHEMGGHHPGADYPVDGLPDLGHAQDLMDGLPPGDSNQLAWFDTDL

[3] = molecular target: T2, M. musculus αE-catenin (M. musculus), P26231; assay: SEC + other: sucrose density gradient centrifugation; analytical Superdex 200 at 4 °C in 20 mM Tris pH 8.0, 150 mM NaCl, 1 mM DTT, protein injected at 25-30 μM (25-50 μM in the results); 5-20% sucrose gradients, 200,000 x g 4 h 4 °C, protein loaded at ≥20 μM; molecular mass from Stokes radius and sedimentation coefficient; details: remark: other sources report otherwise
T2 chain: B4 chain

| Binder | stoichiometry N [1] | further results |
| --- | --- | --- |
| B1 | 2 |  |
| B2 |  | stoichiometry N [2]: 1 |
| B3 | 2 |  |
| B4 |  | stoichiometry N [3]: 2 |
